Data on one molecule can be found in patent US20260028402A1 (published 2026).

The target in test [1] is CynoCD100-HEK293 (cynomolgus monkey). Description: FACS.
Test [2] has as its target full-length human CD100 protein HuCD100 on cells (human, UniProt Q92854 22-862). As to the kind of experiment: FACS; HuPBMC cells.
Test [3] addresses T1, MusCD100-Fc (mouse, UniProt O09126 24-733, biotinylated in the Plexin binding and blocking assays (sites not given)).
T1 chain: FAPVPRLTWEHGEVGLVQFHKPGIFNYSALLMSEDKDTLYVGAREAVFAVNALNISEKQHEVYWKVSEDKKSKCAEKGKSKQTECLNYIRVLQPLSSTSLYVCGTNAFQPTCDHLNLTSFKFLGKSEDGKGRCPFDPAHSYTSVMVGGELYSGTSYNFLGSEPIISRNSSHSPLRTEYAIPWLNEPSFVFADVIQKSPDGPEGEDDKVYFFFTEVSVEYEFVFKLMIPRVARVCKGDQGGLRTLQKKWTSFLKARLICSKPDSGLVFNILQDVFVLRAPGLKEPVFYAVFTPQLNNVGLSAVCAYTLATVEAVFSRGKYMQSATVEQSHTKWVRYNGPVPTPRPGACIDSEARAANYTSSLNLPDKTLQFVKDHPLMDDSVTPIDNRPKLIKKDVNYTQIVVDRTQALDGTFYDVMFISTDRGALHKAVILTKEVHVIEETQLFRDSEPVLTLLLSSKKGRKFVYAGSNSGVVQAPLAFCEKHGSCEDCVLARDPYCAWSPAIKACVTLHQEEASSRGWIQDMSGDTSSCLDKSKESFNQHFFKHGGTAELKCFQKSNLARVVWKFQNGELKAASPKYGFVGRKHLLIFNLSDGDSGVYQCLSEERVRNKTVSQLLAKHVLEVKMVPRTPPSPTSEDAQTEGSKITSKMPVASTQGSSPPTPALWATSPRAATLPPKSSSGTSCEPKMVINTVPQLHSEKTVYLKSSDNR
Description: FACS blocking; MusPlexin-B1-HEK293, FIG. 12F.

Test [4] has as its target T1, MusCD100-Fc. Description: ELISA.
Test [5] deals with T2, HuCD100-His (human, UniProt Q92854 22-734). Description: ELISA.
The next test deals with T3, MusCD100-His (mouse, UniProt O09126 24-733).
T3 chain: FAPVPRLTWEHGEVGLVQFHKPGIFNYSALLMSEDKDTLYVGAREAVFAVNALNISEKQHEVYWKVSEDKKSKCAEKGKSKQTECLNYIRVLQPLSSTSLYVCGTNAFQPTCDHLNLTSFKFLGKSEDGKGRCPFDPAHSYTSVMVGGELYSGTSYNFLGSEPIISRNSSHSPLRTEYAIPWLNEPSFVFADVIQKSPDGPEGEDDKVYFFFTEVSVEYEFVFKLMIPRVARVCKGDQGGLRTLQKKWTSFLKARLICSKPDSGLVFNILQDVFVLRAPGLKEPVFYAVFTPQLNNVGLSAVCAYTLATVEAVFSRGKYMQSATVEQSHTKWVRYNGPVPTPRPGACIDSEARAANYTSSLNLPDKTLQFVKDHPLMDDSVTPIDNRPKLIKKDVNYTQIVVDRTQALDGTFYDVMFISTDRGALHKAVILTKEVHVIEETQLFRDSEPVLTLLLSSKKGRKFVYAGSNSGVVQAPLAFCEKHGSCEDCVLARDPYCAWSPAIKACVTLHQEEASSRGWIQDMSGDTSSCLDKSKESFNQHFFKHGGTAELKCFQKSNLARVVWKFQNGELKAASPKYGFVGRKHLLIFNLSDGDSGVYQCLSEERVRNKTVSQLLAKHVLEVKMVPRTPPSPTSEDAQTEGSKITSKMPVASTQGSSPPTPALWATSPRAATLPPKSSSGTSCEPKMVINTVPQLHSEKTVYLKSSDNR
Description: ELISA.

The target in test [6] is T1, MusCD100-Fc. Description: FACS blocking; MusPlexin-B1-HEK293, FIG. 12E.
The target of test [7] is T4, HuCD100-Fc (in-house prepared) (human, UniProt Q92854 22-734, biotinylated in the Plexin binding and blocking assays (sites not given)). Description: FACS blocking; FIG. 8B, blocking of binding to HuPlexin-B2-HEK293.
The target of test [8] is CynoCD100-HEK293 (cynomolgus monkey). As to the kind of experiment: FACS. The source holds these as a separate data set.
For test [9], the target named is T2, HuCD100-His. As to the kind of experiment: ELISA; FIG. 5D.
Test [10] has as its target T4, HuCD100-Fc (in-house prepared). Description: FACS blocking; HuPlexin-B2-HEK293, FIG. 12C.
Test [11] shares this target. Description: FACS blocking; HuPlexin-B1-HEK293, FIG. 12B.
The target in another test is CynoCD100-His (cynomolgus monkey). As to the kind of experiment: ELISA.
In test [12] the target is T4, HuCD100-Fc (in-house prepared). Description: FACS blocking; HuPlexin-B1-HEK293, FIG. 12A.

Where two headings read alike, the source gives them in different places.

B1: Pepinemab (antibody, V domains shown)
VH: QVQLVQSGAEVKKPGSSVKVSCKASGYSFSDYYMHWVRQAPGQGLEWMGQINPTTGGASYNQKFKGKATITVDKSTSTAYMELSSLRSEDTAVYYCARYYYGRHFDVWGQGTTVTVSS
VL: DIVMTQSPDSLAVSLGERATINCKASQSVDYDGDSYMNWYQQKPGQPPKLLIYAASNLESGVPDRFSGSGSGTDFTLTISSLQAEDVAVYYCQQSNEDPYTFGQGTKLEIK
Regarding B1, the 50% effective concentration (EC50) with CynoCD100-HEK293 [1] amounted to 132 pM; in [2], 479 pM; in the test with MusCD100-Fc [4] it was 0.136 µg/mL; in the test with HuCD100-His [5] it was 0.0804 µg/mL; in the test with MusCD100-His, 0.174 µg/mL; with CynoCD100-HEK293 [8] it was 365 pM. The results for the 50% effective concentration (EC50) with HuCD100-His [9] and in the test with CynoCD100-His were 37.6 pM and 93.8 pM, respectively. Further, the IC50 with MusCD100-Fc [3] is 5440 pM; in the test with MusCD100-Fc [6] it was 4080 pM; in [7], 766 pM; in test [10], 1450 pM; in test [11], 1310 pM; in test [12] it was 896 pM.
